Laboratory results taken from publication PMC2756588.

T1: Bzz1-2, P38822
T1 sequence (P38822 568-633, looked up): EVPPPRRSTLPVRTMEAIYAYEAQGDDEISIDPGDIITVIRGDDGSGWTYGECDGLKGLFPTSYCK

T2: Sla1-2, P32790
T2 sequence (P32790 60-140, looked up): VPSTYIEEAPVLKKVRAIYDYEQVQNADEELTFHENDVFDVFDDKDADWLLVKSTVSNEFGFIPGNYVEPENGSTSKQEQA

T3: Hof1, Q05080
T3 sequence (Q05080 590-669, looked up): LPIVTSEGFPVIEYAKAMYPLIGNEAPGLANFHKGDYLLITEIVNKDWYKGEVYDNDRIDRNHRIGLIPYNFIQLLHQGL

T4: Lsb1, P53281
T4 sequence (P53281 45-122, looked up): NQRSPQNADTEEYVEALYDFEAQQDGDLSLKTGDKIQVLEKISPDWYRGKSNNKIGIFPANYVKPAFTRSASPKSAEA

T5: Boi1, P38041
T5 sequence (P38041 1-86, looked up): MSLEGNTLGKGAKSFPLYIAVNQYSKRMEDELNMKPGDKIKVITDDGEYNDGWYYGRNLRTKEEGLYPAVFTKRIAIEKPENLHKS

T6: Pex13, P80667
T6 sequence (P80667 295-386, looked up): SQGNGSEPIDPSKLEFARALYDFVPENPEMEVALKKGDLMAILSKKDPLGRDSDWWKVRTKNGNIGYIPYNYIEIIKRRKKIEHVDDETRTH

T7: Hse1, P38753
T7 sequence (P38753 208-285, looked up): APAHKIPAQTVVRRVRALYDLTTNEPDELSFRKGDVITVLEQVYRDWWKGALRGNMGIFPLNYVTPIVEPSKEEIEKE

T8: Sla1-3, P32790
T8 sequence (P32790 344-424, looked up): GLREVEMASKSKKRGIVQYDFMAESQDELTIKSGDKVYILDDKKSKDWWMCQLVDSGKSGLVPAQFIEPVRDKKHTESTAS

T9: Boi2, P39969
T9 sequence (P39969 32-116, looked up): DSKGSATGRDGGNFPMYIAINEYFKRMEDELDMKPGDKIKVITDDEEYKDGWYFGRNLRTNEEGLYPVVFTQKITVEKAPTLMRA

T10: Bbc1, P47068
T10 sequence (P47068 1-78, looked up): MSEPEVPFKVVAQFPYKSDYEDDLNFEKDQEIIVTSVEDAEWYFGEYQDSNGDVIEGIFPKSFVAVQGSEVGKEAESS

T11: Lsb3, P43603
T11 sequence (P43603 385-451, looked up): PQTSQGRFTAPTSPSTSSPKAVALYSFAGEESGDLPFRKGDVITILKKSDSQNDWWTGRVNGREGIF

T12: Bud14, P27637
T12 sequence (P27637 247-328, looked up): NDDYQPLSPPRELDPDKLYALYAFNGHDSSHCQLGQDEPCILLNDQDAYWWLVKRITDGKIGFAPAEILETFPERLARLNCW

T13: Cdc25, P04821
T13 sequence (P04821 50-136, looked up): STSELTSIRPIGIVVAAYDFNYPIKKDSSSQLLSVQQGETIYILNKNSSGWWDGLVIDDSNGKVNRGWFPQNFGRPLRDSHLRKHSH

T14: Abp1, P15891
T14 sequence (P15891 535-592, looked up): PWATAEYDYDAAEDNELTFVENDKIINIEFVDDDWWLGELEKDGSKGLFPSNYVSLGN

T15: Bzz1-1, P38822
T15 sequence (P38822 478-572, looked up): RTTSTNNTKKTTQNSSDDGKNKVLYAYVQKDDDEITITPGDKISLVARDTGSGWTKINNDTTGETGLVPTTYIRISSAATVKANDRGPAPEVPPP

T16: Myo5, Q04439
T16 sequence (Q04439 1072-1160, looked up): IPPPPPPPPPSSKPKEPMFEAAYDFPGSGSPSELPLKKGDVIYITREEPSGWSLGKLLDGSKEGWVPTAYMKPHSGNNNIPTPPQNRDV

T17: Fus1, P11710
T17 sequence (P11710 432-512, looked up): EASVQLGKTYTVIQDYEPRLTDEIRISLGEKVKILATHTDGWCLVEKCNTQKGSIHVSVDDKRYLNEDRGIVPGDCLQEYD

T18: Cyk3, Q07533
T18 sequence (Q07533 1-83, looked up): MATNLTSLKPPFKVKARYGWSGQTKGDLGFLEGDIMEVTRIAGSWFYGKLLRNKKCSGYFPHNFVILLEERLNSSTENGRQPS

T19: Pin3, Q06449
T19 sequence (Q06449 53-122, looked up): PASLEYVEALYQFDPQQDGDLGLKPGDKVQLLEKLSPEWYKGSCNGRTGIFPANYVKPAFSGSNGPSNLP

T20: Nbp2, Q12163
T20 sequence (Q12163 103-180, looked up): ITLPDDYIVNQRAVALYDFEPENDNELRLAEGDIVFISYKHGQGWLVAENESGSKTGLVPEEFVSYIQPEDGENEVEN

T21: Lsb4, P32793
T21 sequence (P32793 402-468, looked up): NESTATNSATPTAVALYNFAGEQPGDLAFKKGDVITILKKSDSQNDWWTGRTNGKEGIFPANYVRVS


What was measured:
Test in all cases: SPOT array
Bzz1-2, P38822 = biological target: T1, Bzz1-2, P38822; details: median of control spots 4538
Sla1-2, P32790 = biological target: T2, Sla1-2, P32790; details: median of control spots 712
Hof1, Q05080 = biological target: T3, Hof1, Q05080; details: median of control spots 4086
Bem1-2, P29366 = details: median of control spots 4347
Rvs167, P39743 = details: median of control spots 2707
Myo3, P36006 = details: median of control spots 468
Lsb1, P53281 = biological target: T4, Lsb1, P53281; details: median of control spots 388
Boi1, P38041 = biological target: T5, Boi1, P38041; details: median of control spots 1162
Pex13, P80667 = biological target: T6, Pex13, P80667; details: median of control spots 1341
Hse1, P38753 = biological target: T7, Hse1, P38753; details: median of control spots 1727
Sla1-3, P32790 = biological target: T8, Sla1-3, P32790; details: median of control spots 5475
Sho1, P40073 = details: median of control spots 1148
Boi2, P39969 = biological target: T9, Boi2, P39969; details: median of control spots 1161
GST = details: median of control spots 978
Bbc1, P47068 = biological target: T10, Bbc1, P47068; details: median of control spots 796
Lsb3, P43603 = biological target: T11, Lsb3, P43603; details: median of control spots 406
Bud14, P27637 = biological target: T12, Bud14, P27637; details: median of control spots 956
Cdc25, P04821 = biological target: T13, Cdc25, P04821; details: median of control spots 969
Abp1, P15891 = biological target: T14, Abp1, P15891; details: median of control spots 935
Bzz1-1, P38822 = biological target: T15, Bzz1-1, P38822; details: median of control spots 4446
Bem1-1, P29366 = details: median of control spots 4282
Myo5, Q04439 = biological target: T16, Myo5, Q04439; details: median of control spots 471
Fus1, P11710 = biological target: T17, Fus1, P11710; details: median of control spots 1200
Cyk3, Q07533 = biological target: T18, Cyk3, Q07533; details: median of control spots 1451
Pin3, Q06449 = biological target: T19, Pin3, Q06449; details: median of control spots 2171
Nbp2, Q12163 = biological target: T20, Nbp2, Q12163; details: median of control spots 357
Lsb4, P32793 = biological target: T21, Lsb4, P32793; details: median of control spots 397

Bem1-2, P29366, sequence (P29366 139-227): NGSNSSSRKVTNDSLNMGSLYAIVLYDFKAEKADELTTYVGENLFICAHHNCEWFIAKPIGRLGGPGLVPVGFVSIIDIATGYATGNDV
Sho1, P40073, sequence (P40073 287-367): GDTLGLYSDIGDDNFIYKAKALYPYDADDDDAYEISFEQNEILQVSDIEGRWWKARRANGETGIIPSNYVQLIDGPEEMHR
Rvs167, P39743, sequence (P39743 419-482): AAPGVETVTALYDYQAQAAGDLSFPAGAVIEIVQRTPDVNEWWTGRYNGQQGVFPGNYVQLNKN
Bem1-1, P29366, sequence (P29366 55-141): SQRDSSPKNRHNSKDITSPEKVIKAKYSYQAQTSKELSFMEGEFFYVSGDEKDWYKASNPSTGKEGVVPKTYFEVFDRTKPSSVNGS

Row | Binder | SPOT intensity (Bzz1-2, P38822) | SPOT intensity (Sla1-2, P32790) | SPOT intensity (Hof1, Q05080) | SPOT intensity (Bem1-2, P29366) | SPOT intensity (Rvs167, P39743) | SPOT intensity (Myo3, P36006) | SPOT intensity (Lsb1, P53281) | SPOT intensity (Boi1, P38041) | SPOT intensity (Pex13, P80667) | SPOT intensity (Hse1, P38753) | SPOT intensity (Sla1-3, P32790) | SPOT intensity (Sho1, P40073) | SPOT intensity (Boi2, P39969) | SPOT intensity (GST) | SPOT intensity (Bbc1, P47068) | SPOT intensity (Lsb3, P43603) | SPOT intensity (Bud14, P27637) | SPOT intensity (Cdc25, P04821) | SPOT intensity (Abp1, P15891) | SPOT intensity (Bzz1-1, P38822) | further results
1 | RPKRRAPPPVPKKPS | 2580 | 2 | 2 | 497 | 99 | 491 | 1450 | 3 | 42 | 310 | 2980 | 487 | 1 | 6 | 487 | 298 | 6 | 12 | 555 | 480 | SPOT intensity (Bem1-1, P29366): 0; SPOT intensity (Myo5, Q04439): 232; SPOT intensity (Fus1, P11710): 6; SPOT intensity (Cyk3, Q07533): 2; SPOT intensity (Pin3, Q06449): 9; SPOT intensity (Nbp2, Q12163): 887; SPOT intensity (Lsb4, P32793): 129
2 | RAPPPVPKKPSSRIA | 590 | 0 | 4 | 592 | 45 | 233 | 1600 | 0 | 395 | 857 | 155 | 509 | 0 | 1 | 116 | 415 | 3 | 2 | 673 | 435 | SPOT intensity (Bem1-1, P29366): 0; SPOT intensity (Myo5, Q04439): 15; SPOT intensity (Fus1, P11710): 0; SPOT intensity (Cyk3, Q07533): 0; SPOT intensity (Pin3, Q06449): 37; SPOT intensity (Nbp2, Q12163): 1050; SPOT intensity (Lsb4, P32793): 180
3 | LKHGWKPLRPIKLIS | 1 | 0 | 0 | 7 | 0 | 0 | 0 | 0 | 17 | 147 | 16 | 55 | 0 | 0 | 14 | 0 | 8 | 14 | 75 | 0 | SPOT intensity (Bem1-1, P29366): 0; SPOT intensity (Myo5, Q04439): 0; SPOT intensity (Fus1, P11710): 4; SPOT intensity (Cyk3, Q07533): 0; SPOT intensity (Pin3, Q06449): 3; SPOT intensity (Nbp2, Q12163): 2; SPOT intensity (Lsb4, P32793): 4
4 | NMLKKKPLKKPLKRF | 46 | 2 | 14 | 30 | 0 | 24 | 0 | 11 | 18 | 187 | 36 | 228 | 1 | 6 | 160 | 2 | 33 | 68 | 303 | 0 | SPOT intensity (Bem1-1, P29366): 0; SPOT intensity (Myo5, Q04439): 1; SPOT intensity (Fus1, P11710): 36; SPOT intensity (Cyk3, Q07533): 2; SPOT intensity (Pin3, Q06449): 34; SPOT intensity (Nbp2, Q12163): 66; SPOT intensity (Lsb4, P32793): 1
